Measured values: IntAct's records for PubMed 29039417

B1: BBSome complex member BBS1 (Homo sapiens), Q8NFJ9 (parent)
chain: MAAASSSDSDACGAESNEANSKWLDAHYDPMANIHTFSACLALADLHGDGEYKLVVGDLGPGGQQPRLKVLKGPLVMTESPLPALPAAAATFLMEQHEPRTPALALASGPCVYVYKNLRPYFKFSLPQLPPNPLEQDLWNQAKEDRIDPLTLKEMLESIRETAEEPLSIQSLRFLQLELSEMEAFVNQHKSNSIKRQTVITTMTTLKKNLADEDAVSCLVLGTENKELLVLDPEAFTILAKMSLPSVPVFLEVSGQFDVEFRLAAACRNGNIYILRRDSKHPKYCIELSAQPVGLIRVHKVLVVGSTQDSLHGFTHKGKKLWTVQMPAAILTMNLLEQHSRGLQAVMAGLANGEVRIYRDKALLNVIHTPDAVTSLCFGRYGREDNTLIMTTRGGGLIIKILKRTAVFVEGGSEVGPPPAQAMKLNVPRKTRLYVDQTLREREAGTAMHRAFQTDLYLLRLRAARAYLQALESSLSPLSTTAREPLKLHAVVQGLGPTFKLTLHLQNTSTTRPVLGLLVCFLYNEALYSLPRAFFKVPLLVPGLNYPLETFVESLSNKGISDIIKVLVLREGQSAPLLSAHVNMPGSEGLAAA
partner: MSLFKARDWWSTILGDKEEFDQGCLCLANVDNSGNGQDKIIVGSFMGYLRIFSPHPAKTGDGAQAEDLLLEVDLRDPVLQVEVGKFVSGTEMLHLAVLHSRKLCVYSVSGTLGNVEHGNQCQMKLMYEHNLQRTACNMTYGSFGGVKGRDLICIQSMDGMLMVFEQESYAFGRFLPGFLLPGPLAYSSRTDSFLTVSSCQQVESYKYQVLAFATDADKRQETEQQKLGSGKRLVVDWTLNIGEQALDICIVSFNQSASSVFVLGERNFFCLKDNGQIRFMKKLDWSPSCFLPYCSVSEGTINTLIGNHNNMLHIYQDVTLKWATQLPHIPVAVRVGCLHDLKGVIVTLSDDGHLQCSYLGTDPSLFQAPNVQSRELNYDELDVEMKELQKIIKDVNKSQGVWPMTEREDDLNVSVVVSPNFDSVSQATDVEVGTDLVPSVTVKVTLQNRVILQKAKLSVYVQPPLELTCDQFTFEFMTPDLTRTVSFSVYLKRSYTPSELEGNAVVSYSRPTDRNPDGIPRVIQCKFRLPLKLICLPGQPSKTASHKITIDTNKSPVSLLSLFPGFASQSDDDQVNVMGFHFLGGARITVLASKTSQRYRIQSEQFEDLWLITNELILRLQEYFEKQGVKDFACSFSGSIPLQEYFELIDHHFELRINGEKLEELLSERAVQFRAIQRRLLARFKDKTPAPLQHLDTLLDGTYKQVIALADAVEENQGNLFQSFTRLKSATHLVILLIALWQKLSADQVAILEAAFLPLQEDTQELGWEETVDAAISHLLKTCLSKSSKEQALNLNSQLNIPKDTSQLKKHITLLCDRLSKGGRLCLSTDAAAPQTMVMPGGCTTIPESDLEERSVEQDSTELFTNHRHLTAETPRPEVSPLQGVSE

Variants of: B1
Conditions: with pthb1_human BBS9, Q3SYG4

Row | Variant | effect of a mutation on the interaction
1 | MAAASSSDSDACGAESNEANSKWLDAHYDPMANIHTFSACLALADLHGDGEYKLVVGDLGPGGQQPRLKVLKGPLVMTESPLPALPAAAATFLMEQHEPRTPALALASGPCVYVYKNLRPYFKFSLPQLPPNPLEQDLWNQAKEDRIDPLTLKEMLESIRETAEEPLSIQSLRFLQLELSEMEAFVNQHKSNSIKRQTVITTMTTLKKNLADEDAVSCLVLGTENKELLVLDPEAFTILAKMSLPSVPVFLEVSGQFDVEFRLAAACRNGNIYILRRDSKHPKYCIELSAQPVGLIRVHKVLVVGSTQDSLHGFTHKGKKLWTVQMPAAILTMNLLEQHSRGLQAVMAGLANGEVRIYRDKALLNVIHTPDAVTSLCFGRYGREDNTLIMTTRGGGLIIKILKRTAVFVEGGSEVGPPPAQAMKLNVPRKTRLYVDQTLREREAGTAMHRAFQTDLYLLRLRAARAYLQALESSLSPLSTTAREPLKLHAVVQGLGPTFKLTLHLQNTSTTRPVLGLLVCFLYNEALYSLPRAFFKVPLLVPGLNYPLETFVESLSNKGISDIIKVAVLREGQSAPLLSAHVNMPGSEGLAAA [L567A] | with no effect
2 | MAAASSSDSDACGAESNEANSKWLDAHYDPMANIHTFSACLALADLHGDGEYKLVVGDLGPGGQQPRLKVLKGPLVMTESPLPALPAAAATFLMEQHEPRTPALALASGPCVYVYKNLRPYFKFSLPQLPPNPLEQDLWNQAKEDRIDPLTLKEMLESIRETAEEPLSIQSLRFLQLELSEMEAFVNQHKSNSIKRQTVITTMTTLKKNLADEDAVSCLVLGTENKELLVLDPEAFTILAKMSLPSVPVFLEVSGQFDVEFRLAAACRNGNIYILRRDSKHPKYCIELSAQPVGLIRVHKVLVVGSTQDSLHGFTHKGKKLWTVQMPAAILTMNLLEQHSRGLQAVMAGLANGEVRIYRDKALLNVIHTPDAVTSLCFGRYGREDNTLIMTTRGGGLIIKILKRTAVFVEGGSEVGPPPAQAMKLNVPRKTRLYVDQTLREREAGTAMHRAFQTDLYLLRLRAARAYLQALESSLSPLSTTAREPLKLHAVVQGLGPTFKLTLHLQNTSTTRPVLGLLVCFLYNEALYSLPRAFFKVPLLVPGLNYPLETFVESLSNKGISDIIKVEVLREGQSAPLLSAHVNMPGSEGLAAA [L567E] | with no effect

Results, then the variant that gave them:

Row | effect of a mutation on the interaction | Variant
3 | with no effect | MAAASSSDSDACGAESNEANSKWLDAHYDPMANIHTFSACLALADLHGDGEYKLVVGDLGPGGQQPRLKVLKGPLVMTESPLPALPAAAATFLMEQHEPRTPALALASGPCVYVYKNLRPYFKFSLPQLPPNPLEQDLWNQAKEDRIDPLTLKEMLESIRETAEEPLSIQSLRFLQLELSEMEAFVNQHKSNSIKRQTVITTMTTLKKNLADEDAVSCLVLGTENKELLVLDPEAFTILAKMSLPSVPVFLEVSGQFDVEFRLAAACRNGNIYILRRDSKHPKYCIELSAQPVGLIRVHKVLVVGSTQDSLHGFTHKGKKLWTVQMPAAILTMNLLEQHSRGLQAVMAGLANGEVRIYRDKALLNVIHTPDAVTSLCFGRYGREDNTLIMTTRGGGLIIKILKRTAVFVEGGSEVGPPPAQAMKLNVPRKTRLYVDQTLREREAGTAMHRAFQTDLYLLRLRAARAYLQALESSLSPLSTTAREPLKLHAVVQGLGPTFKLTLHLQNTSTTRPVLGLLVCFLYNEALYSLPRAFFKVPLLVPGLNYPLETFVESLSNKGISDIIKVKVLREGQSAPLLSAHVNMPGSEGLAAA [L567K]
4 | disrupting interaction strength | MAAASSSDSDACGAESNEANSKWLDAHYDPMANIHTFSACLALADLHGDGEYKLVVGDLGPGGQQPRLKVLKGPLVMTESPLPALPAAAATFLMEQHEPRTPALALASGPCVYVYKNLRPYFKFSLPQLPPNPLEQDLWNQAKEDRIDPLTLKEMLESIRETAEEPLSIQSLRFLQLELSEMEAFVNQHKSNSIKRQTVITTMTTLKKNLADEDAVSCLVLGTENKELLVLDPEAFTILAKMSLPSVPVFLEVSGQFDVEFRLAAACRNGNIYILRRDSKHPKYCIELSAQPVGLIRVHKVLVVGSTQDSLHGFTHKGKKLWTVQMPAAILTMNLLEQHSRGLQAVMAGLANGEVRIYRDKALLNVIHTPDAVTSLCFGRYGREDNTLIMTTRGGGLIIKILKRTAVFVEGGSEVGPPPAQAMKLNVPRKTRLYVDQTLREREAGTAMHRAFQTDLYLLRLRAARAYLQALESSLSPLSTTAREPLKLHAVVQGLGPTFKLTLHLQNTSTTRPVLGLLVCFLYNEALYSLPRAFFKVPLLVPGLNYPLETFVESLSNKGISDIIKVLKLREGQSAPLLSAHVNMPGSEGLAAA [V568K]
5 | disrupting interaction strength | MAAASSSDSDACGAESNEANSKWLDAHYDPMANIHTFSACLALADLHGDGEYKLVVGDLGPGGQQPRLKVLKGPLVMTESPLPALPAAAATFLMEQHEPRTPALALASGPCVYVYKNLRPYFKFSLPQLPPNPLEQDLWNQAKEDRIDPLTLKEMLESIRETAEEPLSIQSLRFLQLELSEMEAFVNQHKSNSIKRQTVITTMTTLKKNLADEDAVSCLVLGTENKELLVLDPEAFTILAKMSLPSVPVFLEVSGQFDVEFRLAAACRNGNIYILRRDSKHPKYCIELSAQPVGLIRVHKVLVVGSTQDSLHGFTHKGKKLWTVQMPAAILTMNLLEQHSRGLQAVMAGLANGEVRIYRDKALLNVIHTPDAVTSLCFGRYGREDNTLIMTTRGGGLIIKILKRTAVFVEGGSEVGPPPAQAMKLNVPRKTRLYVDQTLREREAGTAMHRAFQTDLYLLRLRAARAYLQALESSLSPLSTTAREPLKLHAVVQGLGPTFKLTLHLQNTSTTRPVLGLLVCFLYNEALYSLPRAFFKVPLLVPGLNYPLETFVESLSNKGISDIIKVLELREGQSAPLLSAHVNMPGSEGLAAA [V568E]
